Source: paper PMC7110144

T1: CENP-A-GFP-LacI (in S2 cells), Q9V6Q2
T1 chain: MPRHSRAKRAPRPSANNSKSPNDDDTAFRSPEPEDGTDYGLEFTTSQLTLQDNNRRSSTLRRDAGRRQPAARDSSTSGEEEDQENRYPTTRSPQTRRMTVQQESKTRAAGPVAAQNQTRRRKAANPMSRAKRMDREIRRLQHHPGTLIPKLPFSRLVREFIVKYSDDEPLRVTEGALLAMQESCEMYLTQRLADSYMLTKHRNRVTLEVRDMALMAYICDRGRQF


Target: T1, CENP-A-GFP-LacI (in S2 cells), Q9V6Q2
Assay: LacO/LacI tethering assay in Drosophila S2 cells (fluorescence intensity of CAL1-V5 at the tethering site)
Details: chain shown with the change;; parent: est. 1800; read off a plot

| response | Binder |
| --- | --- |
| 120 a.u. | CAL1WT-V5 (in S2 cells), Q9VEN2 W22R; F29R (protein) MANAVVDEETLEAMVYERSKARSSKMADRASLEDGMEIDVAEFDNLFHGEDEDPDLDDVAKEAVEDNVPDEAKLEMGHINATSVTELTLILCANEDNEAKAEIEEILNQTVPVVEEHKRKWREAGLDRILDTFDEKQIEHHVGRWMRRHNSVYLEASPPKYLPPHHNSISDESDESMHSIDTARYIQQSRRRNAHMTNKNMTTIKMYRKHSHKRDELRAKYAYGDEQEHRHHMQAVLLRRRERERQLAYLASTPMQCVYSSGHHMRRKNLRKRRINSWMFDSASSSEEDTSFGGCDCHSCRRHYALSRSVYQSCPYGRGQREYHHRQMASRTMHTMRRQHTFDMEMDLRPRLPENECSCCNSDRLCSNVIHIANSSTEEWVVENRSNHLTQETQEKTRKQKHQPMDARKVSHQPVCSKGHEQKPLSSKATSVSKLVLSKEKYMQMFDSESSDEDNALAKKGLLCCSDKKKGMTFPTPNAAGKITHPTSSAKKAIRKEARPNGLAQIQEEGPTATNSPIESTYLPVAHMKSVSIDGSSGTSATFESPAKKAPKRGIRETSPLNGNELQQLISTIPIADEKASSLMEKVDNCIGRESFDDRNKDFMHMENSSTKTAVEKSTKQKRVSGKKSEIPKSIITNNEILEKNSTETLSEKQVAAKAKKQSVRKTGATGKPSTSRLKKSEKTKTTSSVTSTSKLEQVREEESDVSSEVLAKPKPQCSTTASILKQGGDGASNSEDDLQIALAMSKATYKEEQQKRKKTKREPSNKQPQSPAEKSMTVFNNQSVACNSTALANDTACYRVLPKRRGVKRAAAVSTTEEKTATNSSSSPTSSLEEMGSPTGGDPDCTVVTSTTGCEPPASERQEIPATIKITKRGILLHSPSAPEGASFTLTEQGLGKIIGERWARKYLKYHIGSRSFDSRHSVYYQPTPQLAAALSAPQDAQNIGNISGSSASDDDIFEQINRYGTVYSILENNSGDK |
| 590 a.u. | CAL1WT-V5 (in S2 cells), Q9VEN2 F43R (protein) MANAVVDEETLEAMVYERSKAWSSKMADFASLEDGMEIDVAERDNLFHGEDEDPDLDDVAKEAVEDNVPDEAKLEMGHINATSVTELTLILCANEDNEAKAEIEEILNQTVPVVEEHKRKWREAGLDRILDTFDEKQIEHHVGRWMRRHNSVYLEASPPKYLPPHHNSISDESDESMHSIDTARYIQQSRRRNAHMTNKNMTTIKMYRKHSHKRDELRAKYAYGDEQEHRHHMQAVLLRRRERERQLAYLASTPMQCVYSSGHHMRRKNLRKRRINSWMFDSASSSEEDTSFGGCDCHSCRRHYALSRSVYQSCPYGRGQREYHHRQMASRTMHTMRRQHTFDMEMDLRPRLPENECSCCNSDRLCSNVIHIANSSTEEWVVENRSNHLTQETQEKTRKQKHQPMDARKVSHQPVCSKGHEQKPLSSKATSVSKLVLSKEKYMQMFDSESSDEDNALAKKGLLCCSDKKKGMTFPTPNAAGKITHPTSSAKKAIRKEARPNGLAQIQEEGPTATNSPIESTYLPVAHMKSVSIDGSSGTSATFESPAKKAPKRGIRETSPLNGNELQQLISTIPIADEKASSLMEKVDNCIGRESFDDRNKDFMHMENSSTKTAVEKSTKQKRVSGKKSEIPKSIITNNEILEKNSTETLSEKQVAAKAKKQSVRKTGATGKPSTSRLKKSEKTKTTSSVTSTSKLEQVREEESDVSSEVLAKPKPQCSTTASILKQGGDGASNSEDDLQIALAMSKATYKEEQQKRKKTKREPSNKQPQSPAEKSMTVFNNQSVACNSTALANDTACYRVLPKRRGVKRAAAVSTTEEKTATNSSSSPTSSLEEMGSPTGGDPDCTVVTSTTGCEPPASERQEIPATIKITKRGILLHSPSAPEGASFTLTEQGLGKIIGERWARKYLKYHIGSRSFDSRHSVYYQPTPQLAAALSAPQDAQNIGNISGSSASDDDIFEQINRYGTVYSILENNSGDK |
